What was measured:
Experiment in all cases: SPR
FFL_001_surf1 = biological target: FFL_001_surf1
FFL_001_surf2 = biological target: FFL_001_surf2
FFL_001_surf4 = biological target: FFL_001_surf4
FFL_001 = biological target: T1, FFL_001 (synthetic construct (designed scaffold))
T1 chain: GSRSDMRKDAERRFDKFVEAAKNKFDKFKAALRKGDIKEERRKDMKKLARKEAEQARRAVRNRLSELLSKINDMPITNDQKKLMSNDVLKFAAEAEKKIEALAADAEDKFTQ

## motavizumab Fab
FFL_001_surf1
  Kd: 6.32 pM
  kon: 7.43e+06 M⁻¹ s⁻¹
FFL_001_surf2
  Kd: 0.0296 nM
  koff: 0.000158 s⁻¹
  kon: 5.32e+06 M⁻¹ s⁻¹
FFL_001_surf4
  Kd: 0.0329 nM
  koff: 0.000158 s⁻¹

B1: 17-HD9 IgG (antibody, V domains shown)
VH: QVQLQESGPGLVKPSETLSLTCVVSGGSFSSYYWTWIRQSPGKGLEWIGEMNGNSGYTNYNPSLQSRVTISKDASKNQFSLKLTSLTAADTAVYYCARDAIVMVFTDMRGRVDVWGPGILVTVSS
VL: DIQMSQSPSSLSASVGDTVTITCRASQGISNYLAWYQQKPGKAPKSLIYYTSHLESGVPSRFSGSGSGTDFSLTISSLQPEDFATYYCQQHNSYPRTFGQGTKVEIK
FFL_001
  Kd: ~3 pM
